# Measured values reported in patent US20220275095A1 (SURROZEN OPERATING, published 2022).
# T1: human Fzd8 cysteine rich domain (CRD) (human, UniProt Q9H461 28-153, limits assumed)
# T1 construct: domain: cysteine rich domain (CRD); C-terminally biotinylated in the BLI assay; also called hFzd8; hFzd8 (CRD)
# T1 sequence (looked up): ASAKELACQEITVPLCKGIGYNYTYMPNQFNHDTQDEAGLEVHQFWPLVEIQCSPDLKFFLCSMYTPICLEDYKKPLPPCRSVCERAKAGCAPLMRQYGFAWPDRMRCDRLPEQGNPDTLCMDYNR
# T2: human Fzd5 CRD (human, UniProt Q13467 27-152, limits assumed)
# T2 construct: domain: cysteine rich domain (CRD)
# T2 sequence (looked up): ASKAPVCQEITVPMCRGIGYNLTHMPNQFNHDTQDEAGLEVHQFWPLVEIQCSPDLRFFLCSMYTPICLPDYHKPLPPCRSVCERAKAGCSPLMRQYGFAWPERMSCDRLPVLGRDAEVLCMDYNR
# T3: mouse Fzd9 CRD (mouse, UniProt Q9R216 24-158, limits assumed)
# T3 construct: domain: cysteine rich domain (CRD)
# T3 sequence (looked up): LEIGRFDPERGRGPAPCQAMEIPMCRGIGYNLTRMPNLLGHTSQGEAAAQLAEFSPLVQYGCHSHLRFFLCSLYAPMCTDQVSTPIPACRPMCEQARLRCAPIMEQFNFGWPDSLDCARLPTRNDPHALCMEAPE
# T4: human Fzd10 CRD (human, UniProt Q9ULW2 21-152, limits assumed)
# T4 construct: domain: cysteine rich domain (CRD)
# T4 sequence (looked up): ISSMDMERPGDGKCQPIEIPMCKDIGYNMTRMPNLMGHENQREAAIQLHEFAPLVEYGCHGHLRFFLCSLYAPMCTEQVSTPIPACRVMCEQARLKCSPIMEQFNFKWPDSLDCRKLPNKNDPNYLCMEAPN
# T5: human Fzd4 CRD (human, UniProt Q9ULV1 37-163, limits assumed)
# T5 construct: domain: cysteine rich domain (CRD)
# T5 sequence (looked up): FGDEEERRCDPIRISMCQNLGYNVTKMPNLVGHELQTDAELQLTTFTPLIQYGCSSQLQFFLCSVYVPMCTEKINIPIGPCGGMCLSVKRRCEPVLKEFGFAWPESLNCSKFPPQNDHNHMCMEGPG
# T6: human Fzd6 CRD (human, UniProt O60353 19-134, limits assumed)
# T6 construct: domain: cysteine rich domain (CRD)
# T6 sequence (looked up): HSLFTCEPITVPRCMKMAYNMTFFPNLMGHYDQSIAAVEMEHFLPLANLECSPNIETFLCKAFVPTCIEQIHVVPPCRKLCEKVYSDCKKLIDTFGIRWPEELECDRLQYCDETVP
# T7: mouse Fzd4 CRD (mouse, UniProt Q61088 37-163, limits assumed)
# T7 construct: domain: cysteine rich domain (CRD)
# T7 sequence (looked up): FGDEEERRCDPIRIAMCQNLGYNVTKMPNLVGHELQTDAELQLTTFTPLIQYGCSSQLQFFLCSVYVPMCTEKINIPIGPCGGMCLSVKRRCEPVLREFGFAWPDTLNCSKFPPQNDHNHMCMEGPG
# T8: mouse Fzd3 CRD (mouse, UniProt Q61086 23-138, limits assumed)
# T8 construct: domain: cysteine rich domain (CRD)
# T8 sequence (looked up): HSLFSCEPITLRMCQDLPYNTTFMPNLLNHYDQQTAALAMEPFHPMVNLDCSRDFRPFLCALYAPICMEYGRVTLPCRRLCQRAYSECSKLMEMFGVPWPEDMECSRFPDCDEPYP
# T9: mouse Fzd10 CRD (mouse, UniProt Q8BKG4 22-153, limits assumed)
# T9 construct: domain: cysteine rich domain (CRD)
# T9 sequence (looked up): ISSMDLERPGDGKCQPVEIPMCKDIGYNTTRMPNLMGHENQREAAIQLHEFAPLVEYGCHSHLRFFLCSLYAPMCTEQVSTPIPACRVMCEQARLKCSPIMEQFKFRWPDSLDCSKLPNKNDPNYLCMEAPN
# T10: human Fzd9 CRD (human, UniProt O00144 23-157, limits assumed)
# T10 construct: domain: cysteine rich domain (CRD)
# T10 sequence (looked up): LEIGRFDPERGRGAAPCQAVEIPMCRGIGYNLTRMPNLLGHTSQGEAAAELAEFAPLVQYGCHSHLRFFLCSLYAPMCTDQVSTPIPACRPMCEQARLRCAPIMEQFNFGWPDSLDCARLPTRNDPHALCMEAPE
# T11: human Fzd3 CRD (human, UniProt Q9NPG1 23-138, limits assumed)
# T11 construct: domain: cysteine rich domain (CRD)
# T11 sequence (looked up): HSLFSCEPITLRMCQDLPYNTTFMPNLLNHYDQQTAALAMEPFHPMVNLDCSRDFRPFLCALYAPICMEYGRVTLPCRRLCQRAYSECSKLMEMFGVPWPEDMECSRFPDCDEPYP
# T12: mouse Fzd5 CRD (mouse, UniProt Q9EQD0 27-152, limits assumed)
# T12 construct: domain: cysteine rich domain (CRD)
# T12 sequence (looked up): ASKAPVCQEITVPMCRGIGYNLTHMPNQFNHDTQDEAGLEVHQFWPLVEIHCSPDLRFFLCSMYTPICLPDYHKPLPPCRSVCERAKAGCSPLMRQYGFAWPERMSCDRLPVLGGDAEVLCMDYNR
# T13: mouse Fzd6 CRD (mouse, UniProt Q61089 19-134, limits assumed)
# T13 construct: domain: cysteine rich domain (CRD)
# T13 sequence (looked up): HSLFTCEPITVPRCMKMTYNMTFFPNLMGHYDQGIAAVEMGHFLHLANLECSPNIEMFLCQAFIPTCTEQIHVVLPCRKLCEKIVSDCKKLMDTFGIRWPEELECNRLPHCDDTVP
# B1: 031S-B02 (antibody, V domains shown)
# VH: EVQLLESGGGLVQPGGSLRLSCAASGFTFSSYWMSWVRQAPGKGLEWVSAIGGSGANAYYADSVKGRFTISRDNSKNTLYLQMNSLRAEDTAVYYCVRDTNWAFDLWGQGTMVTVSS
# VL: EIVMTQSPATLSVSPGERATLSCRASQSVSGSYLAWYQQKPGQAPRLLIYGASTRATGIPARFSGSGSGTEFTLTISSLQSEDFAVYYCQQYGSSPLTFGQGTKVEIK
# notes: also called 31SB2
# B2: 031S-B02 Fab (Fab, V domains shown)
# VH: EVQLLESGGGLVQPGGSLRLSCAASGFTFSSYWMSWVRQAPGKGLEWVSAIGGSGANAYYADSVKGRFTISRDNSKNTLYLQMNSLRAEDTAVYYCVRDTNWAFDLWGQGTMVTVSS
# VL: EIVMTQSPATLSVSPGERATLSCRASQSVSGSYLAWYQQKPGQAPRLLIYGASTRATGIPARFSGSGSGTEFTLTISSLQSEDFAVYYCQQYGSSPLTFGQGTKVEIK
# notes: also called 31SB2
# B3: 027S-E5 Fab (Fab, V domains shown)
# VH: QVQLEQSGAEVKKPGASVKVSCKASGGTFSSYAISWVRQAPGQGLEWMGMINPSGGSTTYAQKFQGRVTMTRDTSTSTVYMELSSLRSEDTAVYYCARQAGLHCSSTSCYLGNWFDPWGQGTLVTVSS
# VL: DIQMTQSPSSLSASVGDRVTITCRASQGITKSLAWYQQKPGKAPKLLIYAASNLATGVPSRFSGSGSGTDFTLTISSLQPEDFATYYCQQYNTFPITFGQGTRLEIKR
# notes: Fab chains as printed, heavy chain with hexa-histidine tag; also called 027S-E05
# Legend:
# human Fzd2 hinge region = target: T14, human Fzd2 hinge region (human, UniProt Q14332 150-201); assay: phage ELISA
# T14 construct: also called hFzd2L; 2L
# Fzd2 CRD = Fzd2 CRD (UniProt Q14332 24-155); assay: BLI (Octet Red 96), biotinylated Fzd2 CRD on streptavidin biosensor
# Experimental: Binding kinetics of monospecific Fzd binders to either (CRD) or the extracellular hinge region (hinge) was determined by bio-layer interferometry (BLI) using Octet Red 96 (PALL ForteBio, Fremont, Calif.) instruments at 30° C., 1000 rpm with streptavidin (SA) biosensors. N-terminal biotinylated Fzd1 or Fzd2 CRD and Fzd1 or Fzd 2 hinge proteins were captured on the SA biosensor. Following capture of biotinylated-Fzd1 or Fzd2, the SA biosensor with captured […] was dipped into wells containing the relevant antibodies at 7 different concentrations in running buffer plus a well with only running buffer as a reference channel. KD was determined by global fitting. As shown in FIGS. 4A-4H these antibody fusion proteins only bound to either Fzd1 or Fzd2 protein with the hinge region, and not to the CRD domains alone.
# [1] = target: T1, human Fzd8 cysteine rich domain (CRD); assay: BLI, Fab on captured biotinylated Fzd CRD; *** = 100 nM > KD >= 10 nM
# Experimental: (§1) C-terminal biotinylated Fzd CRD recombinant protein was diluted to 20 nM in the running buffer (PBS, 0.05% Tween-20, 0.5% BSA, pH 7.2) and captured to the SA biosensor until coupling length reached 0.2 nm. Following capture of the Fzd CRD, the SA biosensor with captured biotinylated-Fzd CRD was dipped into wells containing the relevant antibody fragment at 7 different concentrations (0, 1.37, 4.12, 12.4, 37, 111.1, 333.3, 1000 nM) in running buffer, plus a well with only running buffer as a reference channel. KD was determined by global fitting, 1:1 binding model according to manufacturer recommended settings.
# human Fzd5 CRD = target: T2, human Fzd5 CRD; assay: BLI
# Experimental: as §1
# mouse Fzd9 CRD = target: T3, mouse Fzd9 CRD; assay: BLI
# Experimental: as §1
# human Fzd10 CRD = target: T4, human Fzd10 CRD; assay: BLI
# Experimental: as §1
# human Fzd4 CRD = target: T5, human Fzd4 CRD; assay: BLI
# Experimental: as §1
# mouse Fzd7 CRD = mouse Fzd7 CRD (mouse, UniProt Q61090 33-165); assay: BLI
# Experimental: as §1
# human Fzd6 CRD = target: T6, human Fzd6 CRD; assay: BLI
# Experimental: as §1
# human Fzd7 CRD = human Fzd7 CRD (human, UniProt O75084 33-165); assay: BLI
# Experimental: as §1
# mouse Fzd4 CRD = target: T7, mouse Fzd4 CRD; assay: BLI
# Experimental: as §1
# mouse Fzd3 CRD = target: T8, mouse Fzd3 CRD; assay: BLI
# Experimental: as §1
# mouse Fzd10 CRD = target: T9, mouse Fzd10 CRD; assay: BLI
# Experimental: as §1
# human Fzd9 CRD = target: T10, human Fzd9 CRD; assay: BLI
# Experimental: as §1
# human Fzd3 CRD = target: T11, human Fzd3 CRD; assay: BLI
# Experimental: as §1
# mouse Fzd5 CRD = target: T12, mouse Fzd5 CRD; assay: BLI
# Experimental: as §1
# mouse Fzd2 CRD = mouse Fzd2 CRD (mouse, UniProt Q9JIP6 29-160); assay: BLI
# Experimental: as §1
# mouse Fzd6 CRD = target: T13, mouse Fzd6 CRD; assay: BLI
# Experimental: as §1
# mouse Fzd1 CRD = mouse Fzd1 CRD (mouse, UniProt O70421 100-227); assay: BLI
# Experimental: as §1
# human Fzd2 CRD = human Fzd2 CRD (human, UniProt Q14332 24-155); assay: BLI
# Experimental: as §1
# human Fzd1 CRD = human Fzd1 CRD (human, UniProt Q9UP38 105-232); assay: BLI
# Experimental: as §1
binder,measurement,setting,value
B1,binding result,human Fzd2 hinge region,binds
B2,binding result,Fzd2 CRD,no binding
B3,KD,[1],10 to 100 nM
same,binding result,human Fzd5 CRD,no binding (tested: 1000 nM)
same,binding result,mouse Fzd9 CRD,no binding (tested: 1000 nM)
same,binding result,human Fzd10 CRD,no binding (tested: 1000 nM)
same,binding result,human Fzd4 CRD,no binding (tested: 1000 nM)
same,binding result,mouse Fzd7 CRD,no binding (tested: 1000 nM)
same,binding result,human Fzd6 CRD,no binding (tested: 1000 nM)
same,binding result,human Fzd7 CRD,no binding (tested: 1000 nM)
same,binding result,mouse Fzd4 CRD,no binding (tested: 1000 nM)
same,binding result,mouse Fzd3 CRD,no binding (tested: 1000 nM)
same,binding result,mouse Fzd10 CRD,no binding (tested: 1000 nM)
same,binding result,human Fzd9 CRD,no binding (tested: 1000 nM)
same,binding result,human Fzd3 CRD,no binding (tested: 1000 nM)
same,binding result,mouse Fzd5 CRD,no binding (tested: 1000 nM)
same,binding result,mouse Fzd2 CRD,no binding (tested: 1000 nM)
same,binding result,mouse Fzd6 CRD,no binding (tested: 1000 nM)
same,binding result,mouse Fzd1 CRD,no binding (tested: 1000 nM)
same,binding result,human Fzd2 CRD,no binding (tested: 1000 nM)
same,binding result,human Fzd1 CRD,no binding (tested: 1000 nM)
